Test results published in paper PMC4654935.

Experiments:
[1] = target: Rab8A wild-type (recombinant) (human) (UniProt P61006)
[2] = target: Rab8A S111E (recombinant) (human) (UniProt P61006)
[3] = target: Rab8A S111A (recombinant) (human) (UniProt P61006)

- k cat/K M of Rabin8-catalysed mantGDP release from Rab8A (1 uM Rab, 100 uM GDP, 0.5 uM Rabin8, 25°C) [1]: 100000 M⁻¹ s⁻¹
- k cat/K M of Rabin8-catalysed mantGDP release from Rab8A (1 uM Rab, 100 uM GDP, 0.5 uM Rabin8, 25°C) [2]: 7600 M⁻¹ s⁻¹
- k cat/K M of Rabin8-catalysed mantGDP release from Rab8A (1 uM Rab, 100 uM GDP, 0.5 uM Rabin8, 25°C) [3]: 87000 M⁻¹ s⁻¹
B1: Rabin8(153-237) (domain or fragment)
chain: VREKGYERLKEELAKAQRELKLKDEECERLSKVRDQLGQELEELTASLFEEAHKMVREANIKQATAEKQLKEAQGKIDVLQAEVA
